According to paper PMC10047360:

assay: Western blot, mature upper band, B3GnT2-/- HEK293T; conditions: glycan lost; control: wild-type LRP6

| Protein | localisation_or_trafficking |
| --- | --- |
| LRP6: N1039Q (protein) parent chain: MGAVLRSLLACSFCVLLRAAPLLLYANRRDLRLVDATNGKENATIVVGGLEDAAAVDFVFSHGLIYWSDVSEEAIKRTEFNKTESVQNVVVSGLLSPDGLACDWLGEKLYWTDSETNRIEVSNLDGSLRKVLFWQELDQPRAIALDPSSGFMYWTDWGEVPKIERAGMDGSSRFIIINSEIYWPNGLTLDYEEQKLYWADAKLNFIHKSNLDGTNRQAVVKGSLPHPFALTLFEDILYWTDWSTHSILACNKYTGEGLREIHSDIFSPMDIHAFSQQRQPNATNPCGIDNGGCSHLCLMSPVKPFYQCACPTGVKLLENGKTCKDGATELLLLARRTDLRRISLDTPDFTDIVLQLEDIRHAIAIDYDPVEGYIYWTDDEVRAIRRSFIDGSGSQFVVTAQIAHPDGIAVDWVARNLYWTDTGTDRIEVTRLNGTMRKILISEDLEEPRAIVLDPMVGYMYWTDWGEIPKIERAALDGSDRVVLVNTSLGWPNGLALDYDEGKIYWGDAKTDKIEVMNTDGTGRRVLVEDKIPHIFGFTLLGDYVYWTDWQRRSIERVHKRSAEREVIIDQLPDLMGLKATNVHRVIGSNPCAEENGGCSHLCLYRPQGLRCACPIGFELISDMKTCIVPEAFLLFSRRADIRRISLETNNNNVAIPLTGVKEASALDFDVTDNRIYWTDISLKTISRAFMNGSALEHVVEFGLDYPEGMAVDWLGKNLYWADTGTNRIEVSKLDGQHRQVLVWKDLDSPRALALDPAEGFMYWTEWGGKPKIDRAAMDGSERTTLVPNVGRANGLTIDYAKRRLYWTDLDTNLIESSNMLGLNREVIADDLPHPFGLTQYQDYIYWTDWSRRSIERANKTSGQNRTIIQGHLDYVMDILVFHSSRQSGWNECASSNGHCSHLCLAVPVGGFVCGCPAHYSLNADNRTCSAPTTFLLFSQKSAINRMVIDEQQSPDIILPIHSLRNVRAIDYDPLDKQLYWIDSRQNMIRKAQEDGSQGFTVVVSSVPSQNLEIQPYDLSIDIYSRYIYWTCEATNVINVTRLDGRSVGVVLKGEQDRPRAVVVNPEKGYMYFTNLQERSPKIERAALDGTEREVLFFSGLSKPIALALDSRLGKLFWADSDLRRIESSDLSGANRIVLEDSNILQPVGLTVFENWLYWIDKQQQMIEKIDMTGREGRTKVQARIAQLSDIHAVKELNLQEYRQHPCAQDNGGCSHICLVKGDGTTRCSCPMHLVLLQDELSCGEPPTCSPQQFTCFTGEIDCIPVAWRCDGFTECEDHSDELNCPVCSESQFQCASGQCIDGALRCNGDANCQDKSDEKNCEVLCLIDQFRCANGQCIGKHKKCDHNVDCSDKSDELDCYPTEEPAPQATNTVGSVIGVIVTIFVSGTVYFICQRMLCPRMKGDGETMTNDYVVHGPASVPLGYVPHPSSLSGSLPGMSRGKSMISSLSIMGGSSGPPYDRAHVTGASSSSSSSTKGTYFPAILNPPPSPATERSHYTMEFGYSSNSPSTHRSYSYRPYSYRHFAPPTTPCSTDVCDSDYAPSRRMTSVATAKGYTSDLNYDSEPVPPPPTPRSQYLSAEENYESCPPSPYTERSYSHHLYPPPPSPCTDSS | no change |
| LRP6: N692Q (protein) parent chain: MGAVLRSLLACSFCVLLRAAPLLLYANRRDLRLVDATNGKENATIVVGGLEDAAAVDFVFSHGLIYWSDVSEEAIKRTEFNKTESVQNVVVSGLLSPDGLACDWLGEKLYWTDSETNRIEVSNLDGSLRKVLFWQELDQPRAIALDPSSGFMYWTDWGEVPKIERAGMDGSSRFIIINSEIYWPNGLTLDYEEQKLYWADAKLNFIHKSNLDGTNRQAVVKGSLPHPFALTLFEDILYWTDWSTHSILACNKYTGEGLREIHSDIFSPMDIHAFSQQRQPNATNPCGIDNGGCSHLCLMSPVKPFYQCACPTGVKLLENGKTCKDGATELLLLARRTDLRRISLDTPDFTDIVLQLEDIRHAIAIDYDPVEGYIYWTDDEVRAIRRSFIDGSGSQFVVTAQIAHPDGIAVDWVARNLYWTDTGTDRIEVTRLNGTMRKILISEDLEEPRAIVLDPMVGYMYWTDWGEIPKIERAALDGSDRVVLVNTSLGWPNGLALDYDEGKIYWGDAKTDKIEVMNTDGTGRRVLVEDKIPHIFGFTLLGDYVYWTDWQRRSIERVHKRSAEREVIIDQLPDLMGLKATNVHRVIGSNPCAEENGGCSHLCLYRPQGLRCACPIGFELISDMKTCIVPEAFLLFSRRADIRRISLETNNNNVAIPLTGVKEASALDFDVTDNRIYWTDISLKTISRAFMNGSALEHVVEFGLDYPEGMAVDWLGKNLYWADTGTNRIEVSKLDGQHRQVLVWKDLDSPRALALDPAEGFMYWTEWGGKPKIDRAAMDGSERTTLVPNVGRANGLTIDYAKRRLYWTDLDTNLIESSNMLGLNREVIADDLPHPFGLTQYQDYIYWTDWSRRSIERANKTSGQNRTIIQGHLDYVMDILVFHSSRQSGWNECASSNGHCSHLCLAVPVGGFVCGCPAHYSLNADNRTCSAPTTFLLFSQKSAINRMVIDEQQSPDIILPIHSLRNVRAIDYDPLDKQLYWIDSRQNMIRKAQEDGSQGFTVVVSSVPSQNLEIQPYDLSIDIYSRYIYWTCEATNVINVTRLDGRSVGVVLKGEQDRPRAVVVNPEKGYMYFTNLQERSPKIERAALDGTEREVLFFSGLSKPIALALDSRLGKLFWADSDLRRIESSDLSGANRIVLEDSNILQPVGLTVFENWLYWIDKQQQMIEKIDMTGREGRTKVQARIAQLSDIHAVKELNLQEYRQHPCAQDNGGCSHICLVKGDGTTRCSCPMHLVLLQDELSCGEPPTCSPQQFTCFTGEIDCIPVAWRCDGFTECEDHSDELNCPVCSESQFQCASGQCIDGALRCNGDANCQDKSDEKNCEVLCLIDQFRCANGQCIGKHKKCDHNVDCSDKSDELDCYPTEEPAPQATNTVGSVIGVIVTIFVSGTVYFICQRMLCPRMKGDGETMTNDYVVHGPASVPLGYVPHPSSLSGSLPGMSRGKSMISSLSIMGGSSGPPYDRAHVTGASSSSSSSTKGTYFPAILNPPPSPATERSHYTMEFGYSSNSPSTHRSYSYRPYSYRHFAPPTTPCSTDVCDSDYAPSRRMTSVATAKGYTSDLNYDSEPVPPPPTPRSQYLSAEENYESCPPSPYTERSYSHHLYPPPPSPCTDSS | abolishes |
| LRP6: N42Q (protein) parent chain: MGAVLRSLLACSFCVLLRAAPLLLYANRRDLRLVDATNGKENATIVVGGLEDAAAVDFVFSHGLIYWSDVSEEAIKRTEFNKTESVQNVVVSGLLSPDGLACDWLGEKLYWTDSETNRIEVSNLDGSLRKVLFWQELDQPRAIALDPSSGFMYWTDWGEVPKIERAGMDGSSRFIIINSEIYWPNGLTLDYEEQKLYWADAKLNFIHKSNLDGTNRQAVVKGSLPHPFALTLFEDILYWTDWSTHSILACNKYTGEGLREIHSDIFSPMDIHAFSQQRQPNATNPCGIDNGGCSHLCLMSPVKPFYQCACPTGVKLLENGKTCKDGATELLLLARRTDLRRISLDTPDFTDIVLQLEDIRHAIAIDYDPVEGYIYWTDDEVRAIRRSFIDGSGSQFVVTAQIAHPDGIAVDWVARNLYWTDTGTDRIEVTRLNGTMRKILISEDLEEPRAIVLDPMVGYMYWTDWGEIPKIERAALDGSDRVVLVNTSLGWPNGLALDYDEGKIYWGDAKTDKIEVMNTDGTGRRVLVEDKIPHIFGFTLLGDYVYWTDWQRRSIERVHKRSAEREVIIDQLPDLMGLKATNVHRVIGSNPCAEENGGCSHLCLYRPQGLRCACPIGFELISDMKTCIVPEAFLLFSRRADIRRISLETNNNNVAIPLTGVKEASALDFDVTDNRIYWTDISLKTISRAFMNGSALEHVVEFGLDYPEGMAVDWLGKNLYWADTGTNRIEVSKLDGQHRQVLVWKDLDSPRALALDPAEGFMYWTEWGGKPKIDRAAMDGSERTTLVPNVGRANGLTIDYAKRRLYWTDLDTNLIESSNMLGLNREVIADDLPHPFGLTQYQDYIYWTDWSRRSIERANKTSGQNRTIIQGHLDYVMDILVFHSSRQSGWNECASSNGHCSHLCLAVPVGGFVCGCPAHYSLNADNRTCSAPTTFLLFSQKSAINRMVIDEQQSPDIILPIHSLRNVRAIDYDPLDKQLYWIDSRQNMIRKAQEDGSQGFTVVVSSVPSQNLEIQPYDLSIDIYSRYIYWTCEATNVINVTRLDGRSVGVVLKGEQDRPRAVVVNPEKGYMYFTNLQERSPKIERAALDGTEREVLFFSGLSKPIALALDSRLGKLFWADSDLRRIESSDLSGANRIVLEDSNILQPVGLTVFENWLYWIDKQQQMIEKIDMTGREGRTKVQARIAQLSDIHAVKELNLQEYRQHPCAQDNGGCSHICLVKGDGTTRCSCPMHLVLLQDELSCGEPPTCSPQQFTCFTGEIDCIPVAWRCDGFTECEDHSDELNCPVCSESQFQCASGQCIDGALRCNGDANCQDKSDEKNCEVLCLIDQFRCANGQCIGKHKKCDHNVDCSDKSDELDCYPTEEPAPQATNTVGSVIGVIVTIFVSGTVYFICQRMLCPRMKGDGETMTNDYVVHGPASVPLGYVPHPSSLSGSLPGMSRGKSMISSLSIMGGSSGPPYDRAHVTGASSSSSSSTKGTYFPAILNPPPSPATERSHYTMEFGYSSNSPSTHRSYSYRPYSYRHFAPPTTPCSTDVCDSDYAPSRRMTSVATAKGYTSDLNYDSEPVPPPPTPRSQYLSAEENYESCPPSPYTERSYSHHLYPPPPSPCTDSS | no change |
| LRP6: N81Q (protein) parent chain: MGAVLRSLLACSFCVLLRAAPLLLYANRRDLRLVDATNGKENATIVVGGLEDAAAVDFVFSHGLIYWSDVSEEAIKRTEFNKTESVQNVVVSGLLSPDGLACDWLGEKLYWTDSETNRIEVSNLDGSLRKVLFWQELDQPRAIALDPSSGFMYWTDWGEVPKIERAGMDGSSRFIIINSEIYWPNGLTLDYEEQKLYWADAKLNFIHKSNLDGTNRQAVVKGSLPHPFALTLFEDILYWTDWSTHSILACNKYTGEGLREIHSDIFSPMDIHAFSQQRQPNATNPCGIDNGGCSHLCLMSPVKPFYQCACPTGVKLLENGKTCKDGATELLLLARRTDLRRISLDTPDFTDIVLQLEDIRHAIAIDYDPVEGYIYWTDDEVRAIRRSFIDGSGSQFVVTAQIAHPDGIAVDWVARNLYWTDTGTDRIEVTRLNGTMRKILISEDLEEPRAIVLDPMVGYMYWTDWGEIPKIERAALDGSDRVVLVNTSLGWPNGLALDYDEGKIYWGDAKTDKIEVMNTDGTGRRVLVEDKIPHIFGFTLLGDYVYWTDWQRRSIERVHKRSAEREVIIDQLPDLMGLKATNVHRVIGSNPCAEENGGCSHLCLYRPQGLRCACPIGFELISDMKTCIVPEAFLLFSRRADIRRISLETNNNNVAIPLTGVKEASALDFDVTDNRIYWTDISLKTISRAFMNGSALEHVVEFGLDYPEGMAVDWLGKNLYWADTGTNRIEVSKLDGQHRQVLVWKDLDSPRALALDPAEGFMYWTEWGGKPKIDRAAMDGSERTTLVPNVGRANGLTIDYAKRRLYWTDLDTNLIESSNMLGLNREVIADDLPHPFGLTQYQDYIYWTDWSRRSIERANKTSGQNRTIIQGHLDYVMDILVFHSSRQSGWNECASSNGHCSHLCLAVPVGGFVCGCPAHYSLNADNRTCSAPTTFLLFSQKSAINRMVIDEQQSPDIILPIHSLRNVRAIDYDPLDKQLYWIDSRQNMIRKAQEDGSQGFTVVVSSVPSQNLEIQPYDLSIDIYSRYIYWTCEATNVINVTRLDGRSVGVVLKGEQDRPRAVVVNPEKGYMYFTNLQERSPKIERAALDGTEREVLFFSGLSKPIALALDSRLGKLFWADSDLRRIESSDLSGANRIVLEDSNILQPVGLTVFENWLYWIDKQQQMIEKIDMTGREGRTKVQARIAQLSDIHAVKELNLQEYRQHPCAQDNGGCSHICLVKGDGTTRCSCPMHLVLLQDELSCGEPPTCSPQQFTCFTGEIDCIPVAWRCDGFTECEDHSDELNCPVCSESQFQCASGQCIDGALRCNGDANCQDKSDEKNCEVLCLIDQFRCANGQCIGKHKKCDHNVDCSDKSDELDCYPTEEPAPQATNTVGSVIGVIVTIFVSGTVYFICQRMLCPRMKGDGETMTNDYVVHGPASVPLGYVPHPSSLSGSLPGMSRGKSMISSLSIMGGSSGPPYDRAHVTGASSSSSSSTKGTYFPAILNPPPSPATERSHYTMEFGYSSNSPSTHRSYSYRPYSYRHFAPPTTPCSTDVCDSDYAPSRRMTSVATAKGYTSDLNYDSEPVPPPPTPRSQYLSAEENYESCPPSPYTERSYSHHLYPPPPSPCTDSS | abolishes |
